Results: US20140341881A1 (DERMADIS, published 2014)
Where two headings read alike, the source gives them in different places.

Experiments:
human kallikrein 2 (hK2) [1] = target: T1, human kallikrein 2 (hK2) (human, UniProt P20151 25-261); assay: cell-based or functional assay
human kallikrein hK1 = human kallikrein hK1 (human, UniProt P06870 25-262); assay: cell-based or functional assay
[2] = target: T2, human chymotrypsin (Chtr) (human, UniProt P17538 19-263); assay: cell-based or functional assay
[3] = target: T3, human plasma kallikrein (PK) (human, UniProt P03952 20-638); assay: cell-based or functional assay
[4] = target: urokinase plasminogen activator (uPA) (UniProt P00749 21-431, limits assumed); assay: cell-based or functional assay
[5] = target: T4, human neutrophil elastase (HNE) (human, UniProt P08246 30-247, limits assumed); assay: cell-based or functional assay
T4 sequence (looked up): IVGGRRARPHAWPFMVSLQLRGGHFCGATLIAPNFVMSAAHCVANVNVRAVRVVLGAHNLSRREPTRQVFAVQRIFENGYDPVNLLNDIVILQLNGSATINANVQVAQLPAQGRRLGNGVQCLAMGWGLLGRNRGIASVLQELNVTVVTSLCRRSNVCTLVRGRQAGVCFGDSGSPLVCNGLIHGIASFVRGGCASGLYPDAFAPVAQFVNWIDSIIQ

human kallikrein 2 (hK2) [6] = target: T1, human kallikrein 2 (hK2); assay: progress curve, pseudo-first order, fluorogenic substrate
Experimental: (§1) Under these conditions, a fixed amount of enzyme (2 nM) was mixed with different concentrations of inhibitor (0-800 nM) and an excess of substrate (10 μM). Each reaction was made in reaction buffer (50 mM Tris pH 7.5, 150 mM NaCl, 0,05% Triton X-100, 0.01% BSA) at 25° C. for 45 min and the rate of product formation was measured using a FLₓ800 fluorescence 96-well microplate reader (Biotek, USA). In this model, inhibition is considered to be irreversible over the course of reaction and the progress of enzyme activity is expressed by product formation (P), beginning at a rate (vz) and is inhibited over time (t) at a first-order rate (kobs), rate constant that is dependent only on inhibitor concentration.

[7] = target: T2, human chymotrypsin (Chtr); assay: as above
Experimental: as §1

[8] = target: T3, human plasma kallikrein (PK); assay: as above
Experimental: as §1

[9] = target: T4, human neutrophil elastase (HNE); assay: as above
Experimental: as §1

human kallikrein 2 (hK2) [10] = target: T1, human kallikrein 2 (hK2); assay: residual enzyme activity against [I]o/[E]o, fluorogenic substrate
[11] = target: T2, human chymotrypsin (Chtr); assay: as above
[12] = target: T3, human plasma kallikrein (PK); assay: as above
[13] = target: T4, human neutrophil elastase (HNE); assay: as above
[14] = target: T2, human chymotrypsin (Chtr); assay: progress curve
[15] = target: T3, human plasma kallikrein (PK); assay: progress curve
[16] = target: T5, human kallikrein 14 (hK14) (human, UniProt Q9P0G3 25-251, limits assumed); assay: progress curve
T5 construct: range counted on GenBank AAK48524 (printed), which may differ from the UniProt numbering; also called recombinant hK14
T5 sequence (looked up): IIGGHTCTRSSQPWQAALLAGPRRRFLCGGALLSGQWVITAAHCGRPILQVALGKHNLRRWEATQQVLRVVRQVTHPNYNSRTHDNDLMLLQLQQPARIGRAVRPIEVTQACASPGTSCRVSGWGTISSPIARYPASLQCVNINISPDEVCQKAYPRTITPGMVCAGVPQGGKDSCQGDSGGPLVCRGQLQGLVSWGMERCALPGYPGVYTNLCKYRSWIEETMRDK

[17] = target: T2, human chymotrypsin (Chtr); assay: cell-based or functional assay; remark: listed apart in the source
[18] = target: T3, human plasma kallikrein (PK); assay: cell-based or functional assay; remark: listed apart in the source
[19] = target: T4, human neutrophil elastase (HNE); assay: cell-based or functional assay; remark: listed apart in the source
thrombin = assay: cell-based or functional assay
[20] = target: T5, human kallikrein 14 (hK14); assay: cell-based or functional assay
human kallikrein 8 (hK8) [21] = target: T6, human kallikrein 8 (hK8) (human, UniProt O60259 33-260); assay: cell-based or functional assay
T6 sequence (looked up): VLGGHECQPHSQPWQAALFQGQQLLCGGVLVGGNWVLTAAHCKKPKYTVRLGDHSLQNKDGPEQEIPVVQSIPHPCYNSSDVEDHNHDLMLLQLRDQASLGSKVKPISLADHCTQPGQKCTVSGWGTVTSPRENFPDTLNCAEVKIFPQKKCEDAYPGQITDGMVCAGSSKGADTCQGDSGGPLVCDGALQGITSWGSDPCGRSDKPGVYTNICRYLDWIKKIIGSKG

[22] = target: T2, human chymotrypsin (Chtr); assay: residual enzyme activity against [I]o/[E]o
[23] = target: T3, human plasma kallikrein (PK); assay: residual enzyme activity against [I]o/[E]o
[24] = target: T5, human kallikrein 14 (hK14); assay: residual enzyme activity against [I]o/[E]o
human kallikrein 8 (hK8) [25] = target: T6, human kallikrein 8 (hK8); assay: residual enzyme activity against [I]o/[E]o
human kallikrein 2 (hK2) [26] = target: T1, human kallikrein 2 (hK2); assay: Western blot, 1 µg inhibitor with 100 ng kallikrein, 1 h at 37 C
Experimental: (§2) Analysis of the inhibitory reaction between rACTs and the human kallikreins were analysed by Western Blot (data not shown). For each variants of ACT, 1 μg of inhibitor was incubated with 100 ng of either hK2 or hK3 during 1 hour at 37° C. under physiological conditions.

[27] = target: T7, prostate specific antigen (PSA, hK3) (human, UniProt P07288 25-261); assay: as above
Experimental: as §2

[28] = target: T7, prostate specific antigen (PSA, hK3); assay: cell-based or functional assay
[29] = target: T3, human plasma kallikrein (PK); assay: progress curve, ka with PK against ka with hK2
Experimental: as §1
The rate of inhibitory reaction with variant ACTs was determined for each protease showing reactivity with these inhibitors. To that end, interaction of hK2 and recombinant serpins was measured under pseudo-first order conditions using progress curve method. hK2 (2 nM) and substrate Z-FR-AMC […] were added to varying amounts (20 n-800 nM) of inhibitors rACT_{8.20}, rACT_{5.18} and inhibitors rACT_{6.2}, rACT_{8.3}, rACT_{6.7}, rACT_{6.1} (data not shown). […] After determination of kobs, association constants (ka) were calculated using Kₘ of the proteases for their corresponding substrates (table VI). […]

T2 sequence (P17538 19-263): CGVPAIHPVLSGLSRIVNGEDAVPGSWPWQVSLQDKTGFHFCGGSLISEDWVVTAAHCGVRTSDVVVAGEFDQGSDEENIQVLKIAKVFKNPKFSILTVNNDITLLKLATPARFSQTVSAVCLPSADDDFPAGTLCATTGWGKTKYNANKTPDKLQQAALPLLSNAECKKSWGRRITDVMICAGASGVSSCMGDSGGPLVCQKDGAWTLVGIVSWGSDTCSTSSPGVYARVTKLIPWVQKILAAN
T3 sequence (P03952 20-638 limits assumed): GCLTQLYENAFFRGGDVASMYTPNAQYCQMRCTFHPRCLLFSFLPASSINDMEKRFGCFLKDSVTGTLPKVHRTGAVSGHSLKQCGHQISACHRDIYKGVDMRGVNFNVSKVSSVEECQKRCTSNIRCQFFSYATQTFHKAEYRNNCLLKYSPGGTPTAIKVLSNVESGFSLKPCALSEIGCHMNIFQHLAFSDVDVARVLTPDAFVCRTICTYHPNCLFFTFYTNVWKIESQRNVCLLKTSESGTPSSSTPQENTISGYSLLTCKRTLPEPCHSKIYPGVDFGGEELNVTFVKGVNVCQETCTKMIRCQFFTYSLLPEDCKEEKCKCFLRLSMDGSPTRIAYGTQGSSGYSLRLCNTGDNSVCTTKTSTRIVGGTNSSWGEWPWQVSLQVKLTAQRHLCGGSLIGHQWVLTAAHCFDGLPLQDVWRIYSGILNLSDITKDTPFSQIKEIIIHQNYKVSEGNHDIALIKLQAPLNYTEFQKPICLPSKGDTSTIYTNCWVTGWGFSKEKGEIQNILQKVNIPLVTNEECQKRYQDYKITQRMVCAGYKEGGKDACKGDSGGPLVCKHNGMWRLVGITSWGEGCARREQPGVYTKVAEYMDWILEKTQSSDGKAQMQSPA

B1: rACT8.20 (other)
chain: MRGSHHHHHHSRHPNSPLDEENLTQENQDRGTHVDLGLASANVDFAFSLYKQLVLKAPDKNVIFSPLSISTALAFLSLGAHNTTLTEILKGLKFNLTETSEAEIHQSFQHLLRTLNQSSDELQLSMGNAMFVKEQLSLLDRFTEDAKRLYGSEAFATDFQDSAAAKKLINDYVKNGTRGKITDLIKDLDSQTMMVLVNYIFFKAKWEMPFDPQDTHQSRFYLSKKKWVMVPMMSLHHLTIPYFRDEELSCTVVELKYTGNASALFILPDQDKMEEVEAMLLPETLKRWRDSLEFREIGELYLPKFSISRDYNLNDILLQLGIEEAFTSKADLSGITGARNLAVSQVVHKAVLDVFEEGTEASAATAVKITLRSRAVETRTIVRFNRPFLMIIVPTDTQNIFFMSKVTNPKQA
notes: recombinant alpha-1-antichymotrypsin (serpin) variant, RSL substrate peptide LRSRA; N-terminal His tag, E. coli TG1; also called MD820; MD 820
INHIBITION % (human kallikrein 2 (hK2) [1]): 95%
INHIBITION % (human kallikrein hK1): 0%
INHIBITION % [2]: 66%
INHIBITION % [3]: 54%
INHIBITION % [4]: 0%
INHIBITION % [5]: 30%
kon (human kallikrein 2 (hK2) [6]): 1780 M⁻¹ s⁻¹
kon [7]: 905 M⁻¹ s⁻¹
kon [8]: 424 M⁻¹ s⁻¹
kon [9]: 158 M⁻¹ s⁻¹
SI (stoichiometry of inhibition) (human kallikrein 2 (hK2) [10]): 105
SI (stoichiometry of inhibition) [11]: 134
SI (stoichiometry of inhibition) [12]: 150
SI (stoichiometry of inhibition) [13]: 334

B2: rACTPCI (other)
chain: MRGSHHHHHHSRHPNSPLDEENLTQENQDRGTHVDLGLASANVDFAFSLYKQLVLKAPDKNVIFSPLSISTALAFLSLGAHNTTLTEILKGLKFNLTETSEAEIHQSFQHLLRTLNQSSDELQLSMGNAMFVKEQLSLLDRFTEDAKRLYGSEAFATDFQDSAAAKKLINDYVKNGTRGKITDLIKDLDSQTMMVLVNYIFFKAKWEMPFDPQDTHQSRFYLSKKKWVMVPMMSLHHLTIPYFRDEELSCTVVELKYTGNASALFILPDQDKMEEVEAMLLPETLKRWRDSLEFREIGELYLPKFSISRDYNLNDILLQLGIEEAFTSKADLSGITGARNLAVSQVVHKAVLDVFEEGTEASAATAVKITFRSALVETRTIVRFNRPFLMIIVPTDTQNIFFMSKVTNPKQA
notes: E. coli TG1, Ni-NTA purified; also called MDCI; MD CI
kon [14]: 86200 M⁻¹ s⁻¹
kon [15]: 25900 M⁻¹ s⁻¹
kon [16]: 287000 M⁻¹ s⁻¹
INHIBITION % [17]: 98%
INHIBITION % [18]: 100%
INHIBITION % [19]: 0%
INHIBITION % (thrombin): 0%
INHIBITION % [20]: 100%
INHIBITION % (human kallikrein 8 (hK8) [21]): ~25%
SI (stoichiometry of inhibition) [22]: 1
SI (stoichiometry of inhibition) [23]: 4.6
SI (stoichiometry of inhibition) [24]: 3.2
SI (stoichiometry of inhibition) (human kallikrein 8 (hK8) [25]): ~180
binding result (human kallikrein 2 (hK2) [26]): binds
binding result [27]: binds

B3: rACT6.7 (other)
chain: MRGSHHHHHHSRHPNSPLDEENLTQENQDRGTHVDLGLASANVDFAFSLYKQLVLKAPDKNVIFSPLSISTALAFLSLGAHNTTLTEILKGLKFNLTETSEAEIHQSFQHLLRTLNQSSDELQLSMGNAMFVKEQLSLLDRFTEDAKRLYGSEAFATDFQDSAAAKKLINDYVKNGTRGKITDLIKDLDSQTMMVLVNYIFFKAKWEMPFDPQDTHQSRFYLSKKKWVMVPMMSLHHLTIPYFRDEELSCTVVELKYTGNASALFILPDQDKMEEVEAMLLPETLKRWRDSLEFREIGELYLPKFSISRDYNLNDILLQLGIEEAFTSKADLSGITGARNLAVSQVVHKAVLDVFEEGTEASAATAVKIKLRTTLVETRTIVRFNRPFLMIIVPTDTQNIFFMSKVTNPKQA
notes: recombinant ACT variant, RSL substrate peptide KLRTT; N-terminal His tag, E. coli TG1; also called MD67; MD 67
INHIBITION % (human kallikrein 2 (hK2) [1]): 100%
INHIBITION % [28]: 0%
INHIBITION % (human kallikrein hK1): 0%
INHIBITION % [3]: 36%
INHIBITION % [4]: 0%
fold lower ka than with hK2 [29]: 45 fold
kon (human kallikrein 2 (hK2) [6]): 8990 M⁻¹ s⁻¹
kon [8]: 201 M⁻¹ s⁻¹
SI (stoichiometry of inhibition) (human kallikrein 2 (hK2) [10]): 9
SI (stoichiometry of inhibition) [12]: 277
